From publication PMC7523994

How the values were obtained:
[1] = target: γ-gliadin (Triticum aestivum) (UniProt P08453); experiment: SPR; α-gliadin, γ-gliadin or (PQQPY)8 covalently bound to a CM5 chip (EDC/NHS, 10 mM acetate pH 4.7); PINA flowed over at 10 μL/min, 25°C, 10 mM Hepes pH 7.4, 150 mM NaCl, 3.4 mM EDTA, 0.005% P20; global kinetic fit, 1:1 Langmuir model
[2] = target: α-gliadin (Triticum aestivum); experiment: as above
[3] = target: total gliadin fraction (Triticum aestivum); experiment: turbidimetry; optical density at 540 nm after 30 min of mixing at room temperature; gliadins constant at 1 mg/mL, PINA 0 to 0.1 mg/mL; 20 mM Tris-HCl pH 7.2, with or without 0.1 M NaCl; Hill ligand-binding model
[4] = target: total gliadin fraction (Triticum aestivum); experiment: turbidimetry; optical density at 540 nm after 30 min of mixing at room temperature; gliadins constant at 1 mg/mL, PINA 0 to 0.1 mg/mL; 20 mM malate pH 5, with or without 0.1 M NaCl; Hill ligand-binding model
[5] = target: total gliadin fraction (Triticum aestivum); experiment: turbidimetry; optical density at 540 nm after 30 min of mixing at room temperature; gliadins constant at 1 mg/mL, PINA 0 to 0.1 mg/mL; 20 mM citrate pH 5, with or without 0.1 M NaCl; Hill ligand-binding model

Sequence of γ-gliadin (Triticum aestivum) (P08453 20-327): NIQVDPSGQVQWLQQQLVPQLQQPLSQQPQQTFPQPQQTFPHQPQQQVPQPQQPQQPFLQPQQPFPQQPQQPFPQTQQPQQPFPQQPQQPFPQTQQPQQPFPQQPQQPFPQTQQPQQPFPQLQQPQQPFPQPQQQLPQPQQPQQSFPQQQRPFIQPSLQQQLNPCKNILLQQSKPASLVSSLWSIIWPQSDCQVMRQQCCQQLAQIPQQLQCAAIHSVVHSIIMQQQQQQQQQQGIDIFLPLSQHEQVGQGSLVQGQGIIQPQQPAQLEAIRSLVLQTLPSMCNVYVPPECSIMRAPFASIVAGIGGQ

B1: puroindoline A (natural protein)
chain: DVAGGGGAQQCPVETKLNSCRNYLLDRCSTMKDFPVTWRWWKWWKGGCQELLGECCSRLGQMPPQCRCNIIQGSIQGDLGGIFGFQRDRASKVIQEAKNLPPRCNQGPPCNIPGTIGYYW
For B1, the Kd [1] was 630 nM, the koff [1] was 0.00185 s⁻¹ and the kon [1] was 3600 M⁻¹ s⁻¹. For the same binder, the response at equilibrium at 2.5 μM PINA [1] was 34 RU, the Kd [2] was 4450 nM and the koff [2] was 0.00255 s⁻¹. It also gave a kon [2] of 450 M⁻¹ s⁻¹, a response at equilibrium at 2.5 μM PINA [2] of 160 RU and a Kd [3] of 1000 nM. For the same binder, the Kd [4] was 400 nM and the Kd [5] was 600 nM.
